Source: paper PMC8096149

How the values were obtained:
Experiment in all cases: flow cytometry on cells
[1] = biological target: Donkey1.1 H31TAG scFv with AzF
[2] = biological target: Donkey1.1 H31TAG scFv with AzMF
[3] = biological target: Donkey1.1 H31TAG scFv with OPG
[4] = biological target: Donkey1.1 H54TAG scFv with AzF
[5] = biological target: Donkey1.1 H54TAG scFv with OPG
[6] = biological target: Donkey1.1 L93TAG scFv with AzF
[7] = biological target: Donkey1.1 L93TAG scFv with OPG
[8] = biological target: Bovine2.2 H31TAG scFv with AzF
[9] = biological target: Bovine2.2 H31TAG scFv with OPG
[10] = biological target: Bovine2.2 H54TAG scFv with AzF
[11] = biological target: Bovine2.2 H54TAG scFv with OPG
[12] = biological target: Bovine2.2 L93TAG scFv with AzF
[13] = biological target: Bovine2.2 L93TAG scFv with OPG

Kd [1] | antigen binding level relative to wild-type at 200 nM IgG (% of wild-type) [1] | antigen binding level relative to wild-type at 200 nM IgG (% of wild-type) [2] | Kd [3] | antigen binding level relative to wild-type at 200 nM IgG (% of wild-type) [3] | Kd [4] | Kd [5] | Kd [6] | Kd [7] | Kd [8] | Kd [9] | Kd [10] | Kd [11] | Kd [12] | Kd [13] | Substance
561 nM | < 10 | < 10 | 365 nM | < 10 | 213 nM | 55.8 nM | 125 nM | 45 nM |  |  |  |  |  |  | biotinylated donkey IgG (natural protein)
 |  |  |  |  |  |  |  |  | 546 nM | 601 nM | 380 nM | 183 nM | 332 nM | 179 nM | biotinylated bovine IgG (natural protein)
